Laboratory results taken from EP4653869A1 (Nantes Université, dated 2025).

T1: recombinant human interleukin-34 (IL-34) (human, UniProt Q6ZMJ4 21-242)
T1 construct: Bought recombinant protein; also called hIL34
T1 sequence (looked up): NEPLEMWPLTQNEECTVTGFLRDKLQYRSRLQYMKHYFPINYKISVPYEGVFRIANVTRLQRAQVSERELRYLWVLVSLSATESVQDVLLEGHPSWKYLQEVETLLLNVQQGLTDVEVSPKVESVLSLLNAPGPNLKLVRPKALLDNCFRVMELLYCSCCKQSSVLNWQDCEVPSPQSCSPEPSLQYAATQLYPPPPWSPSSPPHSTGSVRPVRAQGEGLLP


Each binder was assayed against T1, recombinant human interleukin-34 (IL-34) (assay: SPR (Biacore T200), BMP immobilized on CM5 chip, IL-34 as analyte, single cycle titration, bivalent fitting model).

Kd | koff | kon | Binder
426 nM | 0.0467 s⁻¹ | 110000 M⁻¹ s⁻¹ | recombinant human bone morphogenetic protein 4 (BMP-4) (ligand, UniProt P12644 293-408, looked up, Immobilized on a CM5 chip by amine coupling in the SPR assay) SPKHHSQRARKKNKNCRRHSLYVDFSDVGWNDWIVAPPGYQAFYCHGDCPFPLADHLNSTNHAIVQTLVNSVNSSIPKACCVPTELSAISMLYLDEYDKVVLKNYQEMVVEGCGCR
922 nM | 0.0561 s⁻¹ | 60800 M⁻¹ s⁻¹ | recombinant human bone morphogenetic protein 7 (BMP-7) (ligand, UniProt P18075 293-431, looked up, Immobilized on a CM5 chip by amine coupling in the SPR assay) STGSKQRSQNRSKTPKNQEALRMANVAENSSSDQRQACKKHELYVSFRDLGWQDWIIAPEGYAAYYCEGECAFPLNSYMNATNHAIVQTLVHFINPETVPKPCCAPTQLNAISVLYFDDSSNVILKKYRNMVVRACGCH
363 nM | 0.0229 s⁻¹ | 63100 M⁻¹ s⁻¹ | recombinant human bone morphogenetic protein 2 (BMP-2) (ligand, UniProt P12643 283-396, looked up, Immobilized on a CM5 chip by amine coupling in the SPR assay) QAKHKQRKRLKSSCKRHPLYVDFSDVGWNDWIVAPPGYHAFYCHGECPFPLADHLNSTNHAIVQTLVNSVNSKIPKACCVPTELSAISMLYLDENEKVVLKNYQDMVVEGCGCR
